From US20110027291A1, “METHODS, SYSTEMS AND PRODUCTS FOR PREDICTING RESPONSE OF TUMOR CELLS TO A THERAPEUTIC AGENT AND TREATING A PATIENT ACCORDING TO THE PREDICTED RESPONSE” (MERRIMACK PHARMACEUTICALS, INC., priority 2008, published 2011)
Values belong to the compound of their own block, whether it stands above or below them.

Tests used:
[1] = molecular target: T1, ErbB1 phosphorylation (pErbB1) in NCI-ADRr cells (Homo sapiens, UniProt P00533); assay: ErbB1 phosphorylation dose response curves for ErbB ligands (ELISA); assay type: cell-based
T1 construct: endogenous in cells; host or cells: NCI-ADRr (ADRr) cells
Protocol: (§1) For stimulation of the cells, the cells are seeded in 100 μl complete media at 35,000 cells per well in 96 well tissue culture plates and incubated overnight in a humidified atmosphere of 5% CO2, 95% air and 37 degrees Celsius. Cells are then switched to serum free media: RPMI-1640 media (Gibco) supplemented with, 2 mM L-glutamine (Gibco) and units/mL Pen-Strep (Gibco). Starved cells are incubated in a humidified atmosphere of 5% CO2, 95% air and 37 degrees Celsius for 20-24 hours prior to stimulation.
(§2) Levels of protein phosphorylation in the stimulated cells are measured by ELISA. Capture antibodies against ErbB1 (R&D Systems, AF231), ErbB2 (R&D Systems, MAB1129), ErbB3 (R&D Systems, MAB3481) and AKT (Upstate, 05-591MG) are incubated in 384 well black flat-bottom polystyrene high-binding plates (Corning, Catalog #3708) overnight at room temperature. The ELISA plates are blocked with 2% bovine serum albumin (BSA) and phosphate buffered saline (PBS) for one hour then incubated with lysates diluted in 2% BSA, 0.1% Tween-20 and PBS for two hours at room temp. In between each incubation, the plates are washed three times with 0.05% Tween-20 in PBS. ELISAs for measuring phospho-ErbB1, -ErbB2 and -ErbB3 are incubated with phospho-tyrosine horseradish peroxidase (HRP) linked monoclonal antibody (R&D Systems, HAM 1676) for two hours. ELISAs measuring phospho-AKT are incubated with primary serine 473 specific anti-phospho AKT mouse monoclonal antibody (Cell Signaling Technologies, Catalog #5102) for 2 hours, then incubated with Streptavidin-HRP(R&D Systems, Catalog #DY998) for 30 minutes. All ELISAs are visualized with SuperSignal ELISA Pico Chemiluminescent Substrate (Pierce, Catalog #37069) and luminescent signal is measured using a luminometer.

[2] = test system: ErbB3 phosphorylation (pErbB3) in NCI-ADRr cells; assay: ErbB3 phosphorylation dose response curves for ErbB ligands (ELISA); assay type: cell-based
Protocol: as §1, §2

ErbB1 = ErbB1 (Homo sapiens, UniProt P00533); assay: ErbB signaling computational model: BTC ligand binding parameters; details: model parameter
Excerpt: (§3) The ErbB receptor signaling network model consists of three receptors (ErbB1, ErbB2, ErbB3), a receptor phosphatase, phosphatidylinositol 3-kinase (PI3K, which binds the receptors) and components of the PI3K-AKT cascade (phosphatidylinositol bisphosphate, PIP2, phosphoinositide-dependent protein kinase, PDK1, PTEN deleted from chromosome 10, PTEN, serine, threonine protein kinase also known as protein kinase B, AKT, Protein phosphatase 2A, PP2A) (see Table 8 below).
(§4) Included in the model were the ligand-induced dimerization, internalization, recycling, and degradation as described in the literature for all homo- and heterodimers (Hendriks, B. S. et al. (2003) J. Biol. Chem. 278:23343-23351; Wang, Z. et al. (1999) Mol. Biol. Cell 10:1621-1636). Receptor dimer stabilities, using the relative scale as published in Shankaran, H. et al. (2008) Biochem. Biophys. Res. Commun. 371:220-224, were implemented, where the coexpression of […] biases signaling to the cell surface and retards signal downregulation and where the simultaneous coexpression of ErbB1-3 leads to an abundance of ErbB2-ErbB3 heterodimers. Therefore, ErbB3-containing dimers internalize and degrade slower than do ErbB1 homodimers or ErbB1-ErbB2 heterodimers. Constitutive dimerization was also included, although ligand-free dimers were assumed not to trigger any downstream signaling (Yu, X. et al. (2002) Mol. Biol. Cell 13:2547-2557) and to remain at the cell surface. ErbB ligands bind with different affinities to ErbB homo- and heterodimers (Teramura, Y. et al. (2006) EMBO J. 25:4215-4222), but to reduce the number of kinetic parameters to be estimated and to describe the experimental data with the simplest model possible, we constrained the binding affinity of the ligands to ErbB homo- and heterodimers to be the same.
(§5) Many of the reaction rate parameters are unknown in the cell system we studied and therefore had to be estimated (see Table 10 below). To avoid biasing the starting point, all parameters were set to default values (Aldridge, B. B. et al. (2006) Nat. Cell. Biol. 8:1195-1203). The number of parameters estimated was limited by performing the estimation in two stages: first the model was calibrated against the experimentally observed ErbB receptor phosphorylation data; second, the parameters sensitive to AKT phosphorylation were optimized against the experimental data. Estimated values were only accepted if the parameters were constrained under multiple parameter runs using a genetic algorithm with a population size of 50 and 25 generations (Mathworks, MA). […] The normalized sensitivities of each species were integrated over the two hour stimulation, and parameters with normalized, integrated sensitivities greater than an arbitrary threshold of 1000 are listed in Table 11 below. As mentioned above, ErbB4 phosphorylation was not included into the parameter estimation because the cell line studied had barely detectable ErbB4 (see Table 3 below). ErbB4 reactions are parameterized according to ErbB3 reactions.

[3] = test system: ErbB2 phosphorylation (pErbB2) in NCI-ADRr cells; assay: ErbB2 phosphorylation dose response curves for ErbB ligands (ELISA); assay type: cell-based
Protocol: as §1, §2

[4] = test system: AKT phosphorylation (pAKT) in NCI-ADRr cells; assay: AKT phosphorylation dose response curves for ErbB ligands (ELISA); assay type: cell-based
Protocol: as §1, §2

ErbB1 on NCI-ADRr cells = ErbB1 on NCI-ADRr cells (UniProt P00533); assay: cell-based or functional assay
ErbB2 [5] = molecular target: T2, ErbB2 (Homo sapiens, UniProt P04626); assay: Lapatinib rate constants from the literature: ErbB2 (Table 13); assay type: binding
ErbB2 [6] = molecular target: T2, ErbB2; details: cited from earlier work
ErbB3 = ErbB3 (Homo sapiens, UniProt P21860); assay: ErbB signaling computational model: HRG ligand binding parameters; details: model parameter
Excerpt: as §3, §4, §5

betacellulin, sequence (P35070 32-111 limits assumed): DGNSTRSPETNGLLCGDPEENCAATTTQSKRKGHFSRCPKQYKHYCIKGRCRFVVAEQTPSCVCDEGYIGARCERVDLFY

- EC50 [1]: 21 nM
- pErbB1 % stimulation at 5 min relative to maximum [1]: 87.0%
- EC50 [3]: 230 nM
Compound: HB-EGF: heparin-binding epidermal growth factor, ErbB ligand
- pErbB2 % stimulation at 5 min relative to maximum [3]: 94.0%
- pErbB3 % stimulation at 5 min relative to maximum [2]: 32.0%
- pAKT % stimulation at 5 min relative to maximum [4]: 20.0%

- pErbB1 % stimulation at 5 min relative to maximum [1]: 0.0%
- EC50 [3]: 7 nM
- EC50 [2]: 9.9 nM
- EC50 [4]: 1.9 nM
- kr1: HRG dissociation from E3 (ErbB3): 0.001 s⁻¹
- kf2: HRG binding to E3:E2 dimers (ErbB3; E3:E2 dimers): 5.00 × 10^−11 molecules-1 sec-1
- kr2: HRG dissociation from E3:E2 dimers (ErbB3; E3:E2 dimers): 0.001 s⁻¹
- kf127: HRG binding in the endosome (ErbB3; endosome): 3.8 molecules-1 sec-1
- kf1: HRG binding to E3 or E4 (ErbB3; unit conversion from 1e5M-1s-1): 5.00 × 10^−11 molecules-1 sec-1
Compound: HRG1-β: heregulin, ErbB receptor ligand which binds to ErbB3 and ErbB4
- pErbB2 % stimulation at 5 min relative to maximum [3]: 43.0%
- pErbB3 % stimulation at 5 min relative to maximum [2]: 100.0%
- pAKT % stimulation at 5 min relative to maximum [4]: 100.0%

The next lines start with the compound.

Compound: BTC: betacellulin, ErbB ligand which binds primarily to ErbB1
- EC50 [1]: 5.7 nM
- EC50 [2]: 100 nM
- kf3: BTC binding to E1 (ErbB1): 5.00 × 10^−11 molecules-1 sec-1
- kr3: BTC dissociation from E1 (ErbB1): 0.001 s⁻¹
- kf5: BTC binding to E1 heterodimers (ErbB1; E1 heterodimers): 5.00 × 10^−11 molecules-1 sec-1
- kf4: BTC binding to E1 homodimers (ErbB1; E1 homodimers): 5.00 × 10^−11 molecules-1 sec-1
- kf129: BTC binding in the endosome (ErbB1; endosome): 3.8 molecules-1 sec-1

Compound: betacellulin (from UniProt P35070 32-111) (ligand)
- EC50 [nM] of pErbB1 dose response, NCI-ADRr cells (ErbB1 on NCI-ADRr cells): 5.7 nM
- EC50 [nM] of pErbB3 dose response, NCI-ADRr cells (ErbB1 on NCI-ADRr cells): 100 nM

Compound: TGFα: transforming growth factor alpha, ErbB1 binding ligand
- EC50 [1]: 30 nM

Compound: CS(=O)(=O)CCNCc1ccc(-c2ccc3ncnc(Nc4ccc(OCc5cccc(F)c5)c(Cl)c4)c3c2)o1 [lapatinib]
- kfLapatinib_4: Lapatinib inhibitor binding to 2-2 dimers (ErbB2 [5]; 2-2 dimers): 3.00E−12 molecules^−1 sec^−1
- kfLapatinib_2: Lapatinib inhibitor binding from ErbB2 or 2-3 dimers (ErbB2 [5]; unit conversion from M^−1s^−1 /(Vmedia * Av/Num_cells)): 1.50E−12 molecules^−1 sec^−1
- Lapatinib inhibitor binding from ErbB2 or 2-3 dimers (on-rate before unit conversion) (ErbB2 [6]): Unit conversion calculated as 2.95e3 M^−1s^−1/
- krLapatinib_2: Lapatinib inhibitor dissociation to ErbB2 or 2-3 dimers (ErbB2 [6]): 3.83e-05 s⁻¹
